# Measured values reported in the RNAGym collection of RNA variant scans (doi:10.1073/pnas.2313332121).
# Variants at the floor of the assay were thinned out.
# B1: TPR 5TU (parent)
# chain: GGAUCUUCUCGAUCUAACAAAAAAGACAAAUCUGCCACAAAGCUUGAGAGCAUCUUCGGAUGCAGAGGCGGCAGCCUUCGGUGGCGCGAUAGCGCCAACGUUCUCAACUAUGACACGCAAAACGCGUGCUCCGUUGAAUGGAGUUUAUCAUG
# Variants of: B1
# Assay: polymerase ribozyme fitness, log enrichment relative to wild type (log ratio); higher = more active; in vitro selection for triplet polymerase activity
# How it was run: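 Genotype fitness is the logarithm of its enrichment divided by wild-type enrichment, using inverse-variance-weighted averages of replicates. That logarithm is base 2. Enrichment was measured by Illumina sequencing of input and output libraries from one triplicate in vitro selection round, with frozen incubation at −7 °C, on PCR-built, transcribed mutant libraries of each subunit of a heterodimeric triplet polymerase ribozyme, retaining genotypes with ≥10 input reads and ≥1 read per output.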
row,Variant,polymerase ribozyme fitness (log ratio)
1,G50C U53A,-3.26
2,U53A A91C U101C,≤ -4.2
3,A52U G59A U82G U145A U146C,-0.208
4,A52G G83C,-2.18
5,A52C U78A C96A U144G,≤ -4.2
6,U53A C76A C87U A107C,≤ -4.2
7,C51U U56A A91G,-3.44
8,C51U U104G,-1.04
9,G50C A60C A98U,-3.01
10,A52C U55A C131G,≤ -4.2
11,C51G G94A,-1.79
12,A52C A66C C69A C87G G133U,≤ -4.2
13,C51U A98U,-0.337
14,C51A C76A G86A,≤ -4.2
15,A52G G74A C87U C131U A142G,-3.99
16,C51A A98U C125G,-0.926
17,A52G C57G C76U G92U U148A,-4.19
18,C51A U55A C95A A110U G128C,≤ -4.2
19,A52C C96U,-1.77
20,G50A U56A C95U,-1.99
21,G50U U130A,-2.51
22,G50U U78C,-2.27
23,G50U G83A U146C A147C,-2.91
24,C51G U53C U77C C95A,≤ -4.2

row,Variant,polymerase ribozyme fitness (log ratio)
1,A52U G59C U101G A122U U144C,-2.67
2,U53A C69G G83A G117U U145C,-3.13
3,A52C G94C,-2.26
4,A52C A91C,≤ -4.2
5,C51A U55G G88C C95A A119C,≤ -4.2
6,C51A C99U,-1.63
7,A52G G58U G84U C96A C99U,-4.02
8,A52U C63U C85U C116G,-0.741
9,C51U U55G A98U A115G,-3.09
10,C51U G92U C93U C95U,-2.56
11,C51A C57A C95A G126A A147G,≤ -4.2
12,C51G G88A A91G A115U U144G U151C,≤ -4.2
13,C51U G59C,0.723
14,A52C G92U C116G,-1.7
15,G50C C93G C99G G126U,≤ -4.2
16,U53A A60U U77C G80C A91G A142C,≤ -4.2
17,A52G C54U C93A,-1.98
18,G50U G83U G128C,-3.62
19,G50A U55G G67C G80U C85G C105U A138U,≤ -4.2
20,G50A U145A,-0.516
21,G50C G74A U77G C93G U135A U139A,≤ -4.2
22,A52G C54U,0.381
23,A52U A150C,-4.03
24,A52U C76U A150U,-1.19

row,Variant,polymerase ribozyme fitness (log ratio)
1,A52C U55A,-1.69
2,C51A A60G G124U,-1.75
3,G50U A64G,≤ -4.2
4,A52G G67A G126U,≤ -4.2
5,G50C G94U A121U G128U,≤ -4.2
6,C51A U55G,-2.17
7,A52C A119U G141C,-2.95
8,G50C G59C U102G,-2.34
9,A52G C93A G140A,≤ -4.2
10,A52G G83C C129A,-2.88
11,A52C G88A A113U A121C,≤ -4.2
12,A52U U55A C87G,≤ -4.2
13,C51U A60G C79G C85G C129A,≤ -4.2
14,A52G A119G,-0.813
15,A52G G92A A113U,-3.81
16,U53A C54G G67C C118U U130A,≤ -4.2
17,A52G G59C C99U,-1.42
18,G50A U144A,-1.6
19,A52U U55G C76U,-4.08
20,A52U U82C G92U C116G A121U,-3.06
21,A52G U77G U82C A91G A106U G140A U144A G152U,≤ -4.2
22,A52G C69U C93U,-2.89
23,G50C A52C G128A,≤ -4.2
24,U53A C54A G58C A64C G126A U135C A138C,≤ -4.2

row,Variant,polymerase ribozyme fitness (log ratio)
1,A52U C57G G58A C95U C123U G126U A138U,≤ -4.2
2,G50C A66C C79G C93U C95U U139C A147U,≤ -4.2
3,G50C U53A C57G G70A G100C A120G,≤ -4.2
4,A52G U82A C96G,0.187
5,G50C G126A,-2.28
6,G50C G65C G68A G86U A147G,≤ -4.2
7,A52G C69G G71C,-2.11
8,C51U U55A C96A,-1.8
9,A52G G83A C118U A150G,-2.35
10,A52C C87A G88U U135C,≤ -4.2
11,G50U C85G,-3.51
12,A52U G58U C95U,-1.52
13,A52G C85A,-2.19
14,A52G A60G U77G A91U G133U,≤ -4.2
15,A52C G83U U145A,-1.8
16,A52C U56A G86A U90A A107C,≤ -4.2
17,G50U A107U,-3.73
18,C51A C57G,-2.19
19,A52U U53A G58U,-0.762
20,C51U C87A G141U,≤ -4.2
21,A52G G58C,0.885
22,G50U G62U U101C,-1
23,G50U G58A G84U C105U G133A G141C,≤ -4.2
24,A52C C103U,-0.611

row,Variant,polymerase ribozyme fitness (log ratio)
1,C51U U127A A142G,-4.07
2,C51G C72A C79A G94A,≤ -4.2
3,U53A A91C C96U,≤ -4.2
4,U53A A73G U78C G133A,≤ -4.2
5,A52U C54U U55A C57G A73G G83C,≤ -4.2
6,A52C C63U C93A A107U C125U U146A,≤ -4.2
7,A52U A107C,≤ -4.2
8,A52U G84U,-2.48
9,C51U A110G,-3.47
10,A52G C54U G58C G86A A89U,-3.29
11,C51U G67C U135C,≤ -4.2
12,C51U C57A G84A U109G C123A,-1.74
13,G50U C87U A115U U144A,-3.8
14,C51U C57G G58C C69A A98U C105G C116U A150U,≤ -4.2
15,A52U U148C,≤ -4.2
16,A52G U53A C85A U111G,≤ -4.2
17,A52G C131A,-1.46
18,A52G G84U C96U U139C U144C,≤ -4.2
19,G50A U56A C57A C114G G133A,-3.53
20,A52C G70C C85U C125U,≤ -4.2
21,G50C U56A C57G A66G C95A C99U A113G G140A,-4.04
22,A52U U55G C87A A119U,≤ -4.2
23,C51A G92U U109C,≤ -4.2
24,G50U A52C C57A G58U A107G,≤ -4.2

row,Variant,polymerase ribozyme fitness (log ratio)
1,C51A C54U C85U,-1.93
2,A52G C105A,-0.578
3,A52G U56A A64C G92U,≤ -4.2
4,G50C C57A A64U U78G,≤ -4.2
5,C51U A150G,-1.14
6,A52G C95A C99A,-1.54
7,G50C A89G A107C C123G,≤ -4.2
8,G50U A122G U135A,-0.743
9,A52G C85A A89G,-3.57
10,G50U U144A,-0.478
11,G50U G80A A91G C99G,≤ -4.2
12,C51A G59U A64G C85U C99G A113G A120G U127G G140U U148A,≤ -4.2
13,C51U G67A U77G C116G G126A C129A,≤ -4.2
14,A52G G84U C118G G128A U144G U145A,≤ -4.2
15,A52G A66C G67C G141C,≤ -4.2
16,A52G C96G,-2.13
17,U53A C57G C75G G83C U102A A121U U144A U145C,≤ -4.2
18,G50C A52G U53A G81C U82G G88U C105G A150G,≤ -4.2
19,A52U C85G C123A G140A,≤ -4.2
20,G50C C75G C85A C132U,≤ -4.2
21,A52G C75U,-0.679
22,U53A A89C,-0.605
23,A52U U82G,-1.46
24,A52U G84A G117C,-0.726

row,Variant,polymerase ribozyme fitness (log ratio)
1,G50C U53C G83A C95G,≤ -4.2
2,C51G A66U G67A C118U,≤ -4.2
3,A52G A113U A150C,≤ -4.2
4,G50A U53A G58C C79U A121G U134A U139G,≤ -4.2
5,A52U G81U C96U C114A A142U,-3.93
6,G50C C103A U139C,≤ -4.2
7,C51U C69A C96U G141C,-3.18
8,G50U G58A A66U C79U C87U G88C A121C,≤ -4.2
9,G50C G83A C87U G141U,≤ -4.2
10,G50C A52C C79A C116G C125G C132G,≤ -4.2
11,G50U G140U,-3.88
12,G50C A98U,-2.38
13,G50C C75G,≤ -4.2
14,A52C U102A,-1.68
15,C51U,-0.394
16,C51A,-0.687
17,C51G,-1.58
18,C51U G58U A91U C96U G100C A138C,≤ -4.2
19,A52U C118U,-1.14
20,A52U C105U,-1.7
21,A52C C95A C132G G141A A150G,≤ -4.2
22,A52C A115G,-2.09
23,A52C C87A,≤ -4.2
